Paper PMC10921949, “Multivalent coiled-coil interactions enable full-scale centrosome assembly and strength” (The Journal of Cell Biology, 2024)
Residue numbers refer to the chain shown, from its start.

B1: SPD-5(541–677) (domain or fragment, C. elegans, UniProt P91349 541-677, looked up)
chain: SQSHIPILHDMQQILDSSAMFLEGQHDVAVNVEQMQEKMSQIREALARLFERLKSSAALFEEILERMGSSDPNADKIKKMKLAFETSINDKLNVSAILEAAEKDLHNMSLNFSILEKSIVSQAAEASRRFTIAPDAE
notes: Used alone and after incubation with kinase-dead PLK-1 (unphosphorylated); also called helical hairpin; source: Arctic Express bacteria, purified (Ni-NTA, Superdex 75 size exclusion)
B2: SPD-5(541–677) R592K (domain or fragment, C. elegans, UniProt P91349 541-677, looked up)
chain: B1 chain with R52K
notes: source: purified
B3: SPD-5(541–677) phosphorylated by PLK-1(CA) (domain or fragment, C. elegans, UniProt P91349 541-677, looked up)
chain: B1 chain
modifications: phosphorylated by PLK-1 (verified by gel migration shift and MS); sites of this sample not listed in the text
notes: also called phosphorylated hairpin; source: Arctic Express bacteria, purified (Ni-NTA, Superdex 75 size exclusion); then incubated with PLK-1(CA)

Target: the molecule itself
Experiment: mass photometry; 50 nM SPD-5(541–677) in PBS on a glass coverslip (TwoMP, Refeyn), alone or after 20 min with 20 nM PLK-1(KD) or PLK-1(CA); dimers seen down to 10 nM

Stoichiometry N, 2:
B1, B2, B3
